Experiment [1] deals with T1, human BAK, full-length, in mitochondria-enriched membrane fractions of bak−/−bax−/− MEFs (Homo sapiens, UniProt Q16611).
T1 construct: BAK, human, full-length; also called hBAK; source: stably expressed in SV40-immortalized bak−/−bax−/− MEFs; permeabilized cells or membrane fractions, solubilized in 1% digitonin for IP and BN-PAGE
The experiment in a line: immunoprecipitation; membrane fractions of MEFs expressing hBAK, no cBID, solubilized in 1% digitonin, pre-cleared; Protein G Sepharose with 4 μg antibody, 4 °C, 1-2 h; blot for BAK. The settings on record: one partner purified.

The target in experiment [2] is T2, hBAKΔN22ΔC25Δcys (Homo sapiens, Δcys (cysteine to serine; position C166 from memory, not given)).
T2 construct: BAK, human, lacking the N-terminal 22 residues and the C-terminal 25 residues (transmembrane anchor); wild-type cysteine residues replaced with serine; also called BAKΔTM; source: E. coli BL21 (DE3), purified (glutathione resin, HRV-3C cleavage, SEC Superdex S75)
T2 chain: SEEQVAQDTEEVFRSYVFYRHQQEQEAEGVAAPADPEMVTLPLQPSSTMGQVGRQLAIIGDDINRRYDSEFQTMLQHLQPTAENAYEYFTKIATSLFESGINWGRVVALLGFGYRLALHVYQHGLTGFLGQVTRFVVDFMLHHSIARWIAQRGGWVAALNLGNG
The experiment in a line: SPR; 14G6 (about 150 RU) captured on a Protein A chip; BAK injected in a threefold dilution series (0.45-1000 nM), single-cycle kinetics; 25 °C, DPBS + 0.005% Tween-20; 1:1 binding model; mean ± SD of three experiments. The conditions noted are these: both partners purified. (In general: SPR reads the build-up and loss of mass on a sensor chip optically.)

For a further experiment, the target named is T3, mBAKΔN20ΔC25Δcys (Mus musculus, stabilised).
T3 construct: BAK, mouse, lacking the N-terminal 20 and the C-terminal 25 residues; wild-type cysteine residues replaced with serine; also called mouse BAK; source: E. coli BL21 (DE3), purified (glutathione resin, HRV-3C cleavage, SEC Superdex S75)
T3 chain: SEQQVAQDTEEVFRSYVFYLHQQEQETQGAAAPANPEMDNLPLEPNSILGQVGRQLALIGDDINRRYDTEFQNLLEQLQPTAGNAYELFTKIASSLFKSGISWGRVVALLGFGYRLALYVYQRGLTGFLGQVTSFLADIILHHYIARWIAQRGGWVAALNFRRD
The experiment is described as above. The settings on record: both partners purified.

Another experiment has as its target T4, hBAKΔN22ΔC25Δcys M60W (Homo sapiens, M60W | Δcys (cysteine to serine; position C166 from memory, not given)).
T4 construct: BAK, human, ΔN22ΔC25, wild-type cysteine residues replaced with serine, M60W; also called hBAK M60W; BAK M60W; source: E. coli BL21 (DE3), purified (glutathione resin, HRV-3C cleavage, SEC Superdex S75)
T4 chain: T2 chain with M38W
The description is as above. The conditions noted are these: both partners purified.

For a further experiment, the target named is T5, hBAKΔN22ΔC25Δcys M60G (Homo sapiens, M60G | Δcys (cysteine to serine; position C166 from memory, not given)).
T5 construct: BAK, human, ΔN22ΔC25, wild-type cysteine residues replaced with serine, M60G; also called hBAK M60G; BAK M60G; source: E. coli BL21 (DE3), purified (glutathione resin, HRV-3C cleavage, SEC Superdex S75)
T5 chain: T2 chain with M38G
The description is as above. The conditions noted are these: both partners purified.

Experiment [3] has as its target T6, BAK, endogenous, in human leukaemia cell lines (Homo sapiens, UniProt Q16611).
T6 construct: BAK, endogenous in blood cancer cell lines established from patients with ALL or AML; the methods list RS4;11, MOLM-13, KG-1, HL-60, OCI-AML3, MV4;11 and THP-1; source: endogenous, membrane fractions of human ALL and AML cell lines, solubilized in 1% digitonin
The experiment in a line: native gel or EMSA; untreated membrane fractions incubated with antibody on ice for 30 min, solubilized with 1% digitonin, BN-PAGE, blot for BAK (gel-shift). The conditions noted are these: one partner purified.

Experiment [4] concerns the target T2, hBAKΔN22ΔC25Δcys. The experiment in a line: SEC; 14G6 Fab mixed with a 1.5-fold excess of BAKΔTM; Superdex 200 Increase 10/300 in TBS; complex of ca 65 kDa. The conditions noted are these: both partners purified. (Size exclusion chromatography separates by hydrodynamic size, large species first.)

The values that follow come from paper PMC11164899, “A novel inhibitory BAK antibody enables assessment of non-activated BAK in cancer cells” (Cell Death and Differentiation, 2024).

Numbering of substitutions follows the chain as printed.

T6 sequence (Q16611 whole entry): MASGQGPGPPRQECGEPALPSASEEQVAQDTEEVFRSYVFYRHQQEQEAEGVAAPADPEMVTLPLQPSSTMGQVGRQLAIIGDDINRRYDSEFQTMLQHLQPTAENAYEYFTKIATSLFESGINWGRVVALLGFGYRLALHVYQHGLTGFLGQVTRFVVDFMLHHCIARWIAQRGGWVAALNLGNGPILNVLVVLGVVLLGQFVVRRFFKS

B1: 14G6 antibody (antibody, V domains shown)
VH: EVKLVESGAELVRPGTSVKVSCKASGYAFTNYLIEWVKQRPGQGLEWIGVINPGSGGTNYNEKFKGKATLTADKSSSTAYMQLTSLTSDDSAVYFCASPSLYGSFDYWGQGTTVTVSS
VL: DIVMTQSHKFMSTSVGDRVSITCKASQDVGTAVAWYQQKPGQSPKLLIYWASTRHTGVPDRFTGSGSGTDFTLTISNVQSEDLADYFCQQYSSYRTFGGGTKLEIK
notes: mouse variable region, human constant region; The results call it a chimera with human constant regions; the immunoprecipitation methods call it '14G6 mouse monoclonal antibody'; Used as an AF488 conjugate for immunocytochemistry; also called clone 14G6; 14G6-AF488; source: mouse B cell cloning; recovered antibody variable regions expressed as chimeras containing human constant regions; copies: 2 …
Take B1: the binding result in experiment [1] and in experiment [3] was “binds” throughout. Besides, the Kd (in general, the equilibrium constant for the complex coming apart) with hBAKΔN22ΔC25Δcys [2] stood at 10 nM; with mBAKΔN20ΔC25Δcys it was 1140 nM; with hBAKΔN22ΔC25Δcys M60W, 9 nM; in the experiment with hBAKΔN22ΔC25Δcys M60G it was 0.6 nM. The dissociation rate constant (koff) (commonly a measure of how fast the partners let go of each other) in the experiment with hBAKΔN22ΔC25Δcys [2] was found to be 7e-05 s⁻¹; with mBAKΔN20ΔC25Δcys, 0.00092 s⁻¹; with hBAKΔN22ΔC25Δcys M60W it was 5e-05 s⁻¹; with hBAKΔN22ΔC25Δcys M60G, 7e-05 s⁻¹. The kon (as a rule, the rate constant with which the complex forms) in the experiment with hBAKΔN22ΔC25Δcys [2] is 6000 M⁻¹ s⁻¹; with mBAKΔN20ΔC25Δcys it was 810 M⁻¹ s⁻¹; with hBAKΔN22ΔC25Δcys M60W, 4900 M⁻¹ s⁻¹; with hBAKΔN22ΔC25Δcys M60G it was 110000 M⁻¹ s⁻¹.

B2: 14G6 Fab (Fab, V domains shown)
VH: B1 VH
VL: B1 VL
notes: Fab part of the heavy chain of m1; as the light chain of m1; also called Fab fragment of antibody 14G6; source: papain cleavage of the full-length antibody, purified by cation exchange (Mono S)
As for B2, in the experiment with hBAKΔN22ΔC25Δcys [4], the stoichiometry N – broadly, the number of molecules, sites or subunits per partner or assembly – worked out at 1.
